Reference: PMC8254828

Target: 3XHA-ankyrin-G F1609R (UniProt G5E8K5)
Sequence of UniProt G5E8K5 (G5E8K5 whole entry F1609R): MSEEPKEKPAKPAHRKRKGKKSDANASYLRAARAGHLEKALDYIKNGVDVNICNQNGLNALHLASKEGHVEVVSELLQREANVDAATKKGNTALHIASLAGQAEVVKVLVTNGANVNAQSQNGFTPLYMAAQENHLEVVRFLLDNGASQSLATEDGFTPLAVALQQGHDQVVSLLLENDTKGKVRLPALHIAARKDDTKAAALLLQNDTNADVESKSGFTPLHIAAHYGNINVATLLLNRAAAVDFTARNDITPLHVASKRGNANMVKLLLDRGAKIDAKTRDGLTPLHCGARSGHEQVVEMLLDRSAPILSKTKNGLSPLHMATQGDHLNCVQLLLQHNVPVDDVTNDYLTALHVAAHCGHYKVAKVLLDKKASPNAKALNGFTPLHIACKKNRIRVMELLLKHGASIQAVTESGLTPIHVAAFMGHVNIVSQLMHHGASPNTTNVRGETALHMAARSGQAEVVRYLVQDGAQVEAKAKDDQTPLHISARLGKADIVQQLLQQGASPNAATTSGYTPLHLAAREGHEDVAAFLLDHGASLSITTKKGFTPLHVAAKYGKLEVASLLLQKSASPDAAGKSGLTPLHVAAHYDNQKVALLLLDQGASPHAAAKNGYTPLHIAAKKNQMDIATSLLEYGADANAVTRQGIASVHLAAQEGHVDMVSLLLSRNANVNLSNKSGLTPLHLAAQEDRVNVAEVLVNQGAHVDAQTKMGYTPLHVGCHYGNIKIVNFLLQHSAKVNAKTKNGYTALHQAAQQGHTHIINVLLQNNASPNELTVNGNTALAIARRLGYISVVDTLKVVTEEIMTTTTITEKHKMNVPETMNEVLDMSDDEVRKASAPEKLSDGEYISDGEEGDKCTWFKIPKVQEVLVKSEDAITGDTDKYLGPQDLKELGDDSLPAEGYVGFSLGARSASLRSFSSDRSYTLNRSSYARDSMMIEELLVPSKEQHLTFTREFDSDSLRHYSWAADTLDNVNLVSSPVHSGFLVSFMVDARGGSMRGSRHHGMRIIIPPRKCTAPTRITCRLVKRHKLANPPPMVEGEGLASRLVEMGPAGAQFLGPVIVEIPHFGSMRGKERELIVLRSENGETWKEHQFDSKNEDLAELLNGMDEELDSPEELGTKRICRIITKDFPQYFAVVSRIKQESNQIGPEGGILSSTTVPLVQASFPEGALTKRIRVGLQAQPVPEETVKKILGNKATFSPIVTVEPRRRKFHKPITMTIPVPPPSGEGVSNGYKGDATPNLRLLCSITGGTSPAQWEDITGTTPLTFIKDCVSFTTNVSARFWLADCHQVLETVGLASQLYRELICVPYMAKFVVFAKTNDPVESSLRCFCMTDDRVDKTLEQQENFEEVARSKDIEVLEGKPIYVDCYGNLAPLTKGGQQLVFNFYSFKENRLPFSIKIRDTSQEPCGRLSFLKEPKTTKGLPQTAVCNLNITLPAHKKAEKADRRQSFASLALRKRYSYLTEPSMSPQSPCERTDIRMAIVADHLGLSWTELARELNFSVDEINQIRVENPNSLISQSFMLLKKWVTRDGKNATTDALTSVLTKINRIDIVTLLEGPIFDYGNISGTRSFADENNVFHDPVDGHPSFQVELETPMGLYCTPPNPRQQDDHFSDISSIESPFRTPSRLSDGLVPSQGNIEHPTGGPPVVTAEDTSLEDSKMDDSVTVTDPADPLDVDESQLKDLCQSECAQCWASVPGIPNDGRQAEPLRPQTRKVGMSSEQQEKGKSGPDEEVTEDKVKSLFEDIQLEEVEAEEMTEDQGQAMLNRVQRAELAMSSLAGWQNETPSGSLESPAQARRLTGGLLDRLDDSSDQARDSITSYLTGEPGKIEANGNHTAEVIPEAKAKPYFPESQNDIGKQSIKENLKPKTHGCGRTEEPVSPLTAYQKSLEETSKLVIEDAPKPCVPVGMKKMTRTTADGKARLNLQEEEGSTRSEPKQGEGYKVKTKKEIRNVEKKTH

Question: With “Homer1b/c, endogenous (from UniProt Q9Z2Y3 1-366) (natural protein)” as the substance, how does the FRAP in dendritic spines of primary cortical neurons: mobile fraction of GFP-ankyrin-G^F1609R against GFP-ankyrin-G^WT, 200 s after photobleaching (GFP-tagged forms of the constructs) read?
Answer: 22.4%
